Data reported in the supplement of paper PMC9170038.

Experiments:
Conditions in all cases: FMN input: 0 or 200 uM; Eterna round: R93 (includes R88 designs)
[1] = system: MS2 coat protein; experiment: apparent KD of MS2 coat protein, switch ON state; designed switch direction (-1 OFF switch, 1 ON switch): 1; higher = weaker reporter binding
How it was run: (§1)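 SNAP-549-labelled MS2 coat protein was titrated onto designed RNA switches that had been transcribed on-chip from Illumina sequencing clusters. Amounts doubled from 0.7 or 1.5 nM to 3 µM in 100 mM Tris-HCl pH 7.5, 80 mM KCl, 4 mM MgCl2, with constant ligand or without. Apparent KD is the median per design of normalised cluster binding-curve fits.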

[2] = system: MS2 coat protein; experiment: apparent KD of MS2 coat protein, switch OFF state (with FMN for OFF switches, without FMN for ON switches); designed switch direction (-1 OFF switch, 1 ON switch): 1; higher = weaker reporter binding
How it was run: as §1

[3] = system: MS2 coat protein; experiment: apparent KD of MS2 coat protein, switch ON state; designed switch direction (-1 OFF switch, 1 ON switch): -1; higher = weaker reporter binding
How it was run: as §1

[4] = system: MS2 coat protein; experiment: apparent KD of MS2 coat protein, switch OFF state (with FMN for OFF switches, without FMN for ON switches); designed switch direction (-1 OFF switch, 1 ON switch): -1; higher = weaker reporter binding
How it was run: as §1

Sequence	apparent KD of MS2 coat protein [1] [nM]	apparent KD of MS2 coat protein [2] [nM]	apparent KD of MS2 coat protein [3] [nM]	apparent KD of MS2 coat protein [4] [nM]
AAAAAAAAAACUGAGGAUAUCAGGGAUGGUACAUGAGGAUCACCCAUGUUGGCGGGCGAAGAAACUGAGAAGGCAGAAAAAAAAAA [JR_SameState2_Sub4]	40.4	79.6	–	–
AAAAAAAAAGUCGAGGAUAUCCACAUGGCUACAUGAGGAUCACCCAUGUGAAGAAAAGCACAUGAGGAGAAGGCGACAAAAAAAAA [Tightrope]	11.6	24.5	–	–
AAAAAACAUGAGGAUCACCCAUGUAAAAAAAUGGGAGGAUAUCUGAAUUAAUUAAAUUAAGGAGAAGGCCUAAAAA [71%, Same state of confusion2, 4]	26	425	–	–
AAAAAACAUGAGGAUCACCCAUGUAAAAAUAUGGGAGGAUAUGCGAAAAGAAACAAAGAAGCAGAAGGCCUAAAAA [75%, Ex5 sub 1, 8]	25.6	185	–	–
AAAAAACAUGAGGAUCACCCAUGUAGAAAUAUGGGAGGAUAUACAAAGACGAAAGUCAAAGUAGAAGGCCUAAAAA [77%, Mat - Mod of Eli, 2]	18.2	57.8	–	–
AAAAAACAUGAGGAUCACCCAUGUCAAAAGACAUGAGGAUAUGUACAGACUUCGGUCUGUACAGAAGGCAUGUCAA [SS1 - 1019]	21.1	31.7	–	–
AAAAAACAUGAGGAUCACCCAUGUCUUCGGACAUGAGGAUAUGUACAGACUUCGGUCUGUACAGAAGGCAUAAAAA [SS1 - 1010]	221	12.6	–	–
AAAAAACAUGAGGAUCACCCAUGUGAAAAAUUCGCAGGAUAUCCCUUUUUUAAAUGGGAGGGAGAAGGGUGAAAAA [Nob's Hobby 16 - Jieux - Same State 1]	34.8	112	–	–
AAAAAACAUGAGGAUCACCCAUGUGACAACAUGGGAGGAUAUACAAAGACGAGAGUCGAAGUAGAAGGCCUAAAAA [Garnet 77]	66.1	32.6	–	–
AAAAAACAUGAGGAUCACCCAUGUGAGAAUAUGGAAGGAUAUACAAAGACGAAAGUCAAAGUAGAAGGUCUAAAAG [Mat - Same State 1 - Eli mod - D90]	31.1	31.5	–	–
AAAACACAUGAGGAUCACCCAUGUAAAAACAUGAGAGGAUAUGCAUGGAAAAAAAACUAUGCAGAAGGCUCAUGUG [SS1 - 4]	21.2	32.2	–	–
AAAACACAUGAGGAUCACCCAUGUAAAAACUUGGGAGGAUAUGCUUGGAAAACAUGCUAUGCAGAAGGCUCUAGUG [SS1 - 13]	49.9	123	–	–
AAAACACAUGAGGAUCACCCAUGUAGAAAUACGGGAGGAUAUGCAAAAACGAAAGACAAAGUAGAAGGCCUAAAAG [saturn 9]	26.2	67	–	–
AAAACACAUGAGGAUCACCCAUGUAGAAAUACGGGAGGAUAUGCUAAAACGAAAGACAAUGUAGAAGGCCUAAAAG [saturn 10]	37.7	59.6	–	–
AAAACACAUGAGGAUCACCCAUGUCAAAAAAACACAGGAUAUCCAAAAAAAAAAAAAAAAGGAGAAGGGUGAAAAA [high kcal]	65	42	–	–
AAAAGACAUGAGGAUCACCCAUGUAAAAACGUAGGAGGAUAUGUCGUGAAAAAAGACUUGGCAGAAGGCCUGUGUC [SS1 - 39]	30	50.5	–	–
AAAAGACAUGAGGAUCACCCAUGUAAAGACGUGGGAGGAUAUGUAUGGAAACCAGACUGUACAGAAGGCCUCUGUC [SS1 - 72]	165	243	–	–
AAAAGACAUGAGGAUCACCCAUGUCAAAACGUAGGAGGAUAUGUAUGGAAACCAUACUGUACAGAAGGCCUUUGUC [SS1 - 77]	14	14.2	–	–
AAAAGACAUGAGGAUCACCCAUGUCAAAACGUAGGAGGAUAUGUCGUGAAAAAAGACUUGACAGAAGGCCUGUGUC [SS1 - 36]	15.8	17.1	–	–
AAACCACAUGAGGAUCACCCAUGUAAAAAAAACACAGGAUAUGGAAACACGAAAGUGAAACCAGAAGGGUGAAAAA [77%, Mat - Mod of Eli, 26]	18.4	26.2	–	–
AAAGAAAAACUAGAGGAUAUUUGAAUGGUAACAUGAGGAUCACCCAUGUGAAGAAAGGAACAUGAGGAGAAGGCUAGAAGAAAAA [JL Nando mod 16]	17.5	74.7	–	–
AAAGAAUGAAGGCAGGAUAUGUGAAAAAAAACAUGAGGAUCACCCAUGUAAUAAAUGGGUACAAAACAGAAGGGCCAAGAAACAA [SS 2 Tesla 3]	380	700	–	–

Sequence	apparent KD of MS2 coat protein [1] [nM]	apparent KD of MS2 coat protein [2] [nM]	apparent KD of MS2 coat protein [3] [nM]	apparent KD of MS2 coat protein [4] [nM]
AAAGACAUAGUUCAGGAUAUGGUAAUAGUCACAUGAGGAUCACCCAUGUGCAUUUAUAUGCGCGAUCAGAAGGGAGGUAGAUAAA [SameState2 Malc#17]	24.9	21.5	–	–
AAAUAAAUGACUCAGGAUAUGUCAGAGAAAACAUGAGGAUCACCCAUGUAAUAAUAACAUGUGUGACAGAAGGGAGUCAAUAAAU [LROPPY Same State 2 - v01_deltaG=.6]	27.2	15	–	–
AAAUAAAUGACUGAGGAUAUAUCGAUGAAAACAUGAGGAUCACCCAUGUGAUAAUAAAAAGGGUGAUAGAAGGUAGUCAACAAAC [Mod 11 of Pariah 4 by Hyphema in Round 1]	52.1	211	–	–
AAAUAUAAAGACUAGGAUAUACUAAAAUAAACAUGAGGAUCACCCAUGUAAAAAAUAAAACUCAUGUAGAAGGAGUAAAUAUAAA [ss2 10th]	13.5	15.5	–	–
AAAUGAUCAUGUGAGGAUAUCCAUAAUAAAACAUGAGGAUCACCCAUGUAUAGAUAAUAAUAAUGGGAGAAGGCACAUGAUCAAU [Mat - Same state - Mayanna Mod - D103]	20	17.2	–	–
AACAAUCUAUCUGAGGAUAUCAAGUCAAAGACAUGAGGAUCACCCAUGUGCAGGAAAACUGCAUUUGAGAAGGCAGAUAGAUUGA [SS2: 1108]	10.3	12.1	–	–
AACAAUCUAUCUGAGGAUAUCAUGUCAAAGACAUGAGGAUCACCCAUGUAGCAGGAAACUGCAUAUGAGAAGGCAGAUAGAUUGA [SS2: 1118]	16.3	166	–	–
AACAAUCUAUCUGAGGAUAUCAUGUCAAAGACAUGAGGAUCACCCAUGUUGCAGGAAACUGCUCAUGAGAAGGCAGAUAGAUUGA [SS2: 1129]	41	828	–	–
AACAAUCUAUCUGAGGAUAUGAUGUCAAAGACAUGAGGAUCACCCAUGUCCAGGAAAACUGGAUAUCAGAAGGCAGAUAGAUUGA [SS2: 1104]	10.2	12.9	–	–
AACAAUCUAUCUGAGGAUAUGUGUCGAAAGACAUGAGGAUCACCCAUGUAAAAACAUGGAAAAUCACAGAAGGCAGAUAGAUUGA [SS2: 1145]	127	1790	–	–
GGUUGGCGAGGAUAUACAUGAGGAUCACCCAUGUGAGAGAAAUAAGUGAGAAAGAAAAGUAGAAGGCGCUGACG [salish99-ex3-43]	–	–	87.7	1700
GGUUGGCGAGGAUAUACAUGAGGAUCACCCAUGUGAGAGUAAAAAGUGAGAAAGAAAAGUAGAAGGCGCUGACG [salish99-ex3-46]	–	–	27.1	85.1
GGUUGGCGAGGAUAUACAUGAGGAUCACCCAUGUGAGUGAAAAAAGUGAGAAAGAAAAGUAGAAGGCGCUGACG [salish99-ex3-47]	–	–	161	489
GUAAACCUAGGAUAUACAUGAGGAUCACCCAUGUAAAGUUUCGUAAAAAGAAAAUCGAGUAGAAGGAGGUAGAU [JR_Exc003_Sub1222]	–	–	22.5	26.6
GUGGAACAUGAGGAUCACCCAUGUGAGGAUAUAGGUUUUUGGGAAAAACUAGGAGAAACUAGAAGGCGCAAGAA [Exclusion 1.1]	–	–	26.2	22
UAAAAACAUGAGGAUCACCCAUGUCAGGAUAUGUGCUCAGUGAAAAACUGAGUAACAAGCAGAAGGGACAAUAA [JR_Exc001_Sub202]	–	–	23.6	31.4
UAAACCCUAGGAUAUACAUGAGGAUCACCCAUGUUUGUCGAAGAACGAACAGUCCUCAGUAGAAGGAGGACGAA [Geriza]	–	–	27.4	24.3
UAUACGUGAGGAUAUGCGAAUAACACGUUAGACAAAUAGACGCAGAAGGCACAUGAGGAUCACCCAUGUGAACC [JR_Exc004_Sub316]	–	–	18.1	17
UCCGGACAUGAGGAUCACCCAUGUGAGGAUAUAUAAAGUGGGACUGGAAACAGUCCCAAUAGAAGGCACAUGAA [Celaar]	–	–	21.2	19.6
UCCUGACAUGAGGAUCACCCAUGUCAGGAUAUAGUAUGAAAAAAAAAAAAAAAAAAUACUAGAAGGGACAAGGG [Design 13: Super Stable Short Helix 4]	–	–	18.5	26.8
UCUUGACAUGAGGAUCACCCAUGUCAGGAUAUAGUAGGACAAAUAAAUAAAAGUUCUACUAGAAGGGAUAUGGA [Design 18: G-U+]	–	–	14.3	12.7
